This is an account of results in a protein production outcome set (Wang et al. 2014).

This data set can be described thus: label from the status in PepcDB records.
As to “AIVKRFEPLLLVPIGFGGILSNLPDAGLAMSAIENAVYAAKPEVMTAFSEVLQLSSYMPADIKQALSSATPLQMTTLHLLAEQYQYSDGM”, the protein production entry is on record as “failed”.

On to “AKESEQKVTIDSAKHEKHTKDKEENNSANTVFFDKINDLLVASVKEFEGTVGISYLDLETGEQRSVNGQHEFYTASTIKVPLTMLVADTVASGQKKWTDLIPYNAEEDYEEGTGIIAYNIQPEYPLKTLQEYAITYSDNIAKNMLYDTLGGDAKAKREMYQRYLHKTPSIEEPQFSSEDALVILQKLYTEKATKPDYQAIYDSMKQSVFHERMETPTTQGKVAHKIGSYDEFIHDMGILETPHPFALAIFTKGPDNAKSAAFIASVTDKLWQLQVSEYPNQ”, for which the protein production result is recorded as “not failed”.

For “AKRVVFVTVGTTSFDALVKAVVSQNVKDELQKRGFTHLLIQMGRGIFFPTKCDGADGSLVVDYFTFSSSIADYIRSASLVISHAGSGSIFETLKLGKPLIVVVNEDLMDNHQCELAEALEERKHLYYTRPHSLHQTLTKMELGSLVQYTPGDGTPVARIIDRFLG”, the protein production result is reported as “failed”.

With “AKVVFYEKPGCVGNARQKALLTASGHELEVRNLLAEPWTRETLRPFFGDKPLIEWFNQSSPKVKAGAIDFAALGVEAALALMIEDPLLIRRPLMQSGDRREVGFDQATVHAWLG”, the protein production entry was “failed”.

With “ALFHKKLTEGVLMRDPKFLWCAQCSFGFIYEREQLEATCPQCHQTFCVRCKRQWEEQHRGRSCEDFQNWKRMN”, the protein production result is “not failed”.

Regarding “ALKQKIIGNGEKRVVTYAPTWREDDFISVGHYHFRWHFSLKKMMGLLPEDVMLLIRPHYLVTDRIDIKGFEDRVVIDSTTDMNEIYLITDLMVTDYSSVMFDFAILKRPMLFFAYDLEYYRDDLRGFYFDYYTELPGSIVTDETHLLAEIDQLLQNNFAELDPERFNKFAKRFVSWERGTAAQQVIEKINY”, the protein production result was “not failed”.

As for “ALPDPVKPKAPKAVNPFHLGMAGYTFVNFDLDTTLKTLERLDIHYLCIKDFHLPLNSTDEQIRAFHDKCAAHKVTGYAVGPIYMKSEEEIDRAFDYAKRVGVKLIVGVPNYELLPYVDKKVKEYDFHYAIHLHGPDIKTYPDATDVWVHTKDLDPRIGMCLDVGHDLRNGCDPVADLKKYHTRVFDMHIKDVTDSSKAGVGIEIGRGKIDFPALIRMMREVNYTGMCSLEYEKDMKDPFLGIAESIGYFKAVSDLT”, the protein production result was “not failed”.

Take “ANIYTFDFDEIESQEDFYRDFSQTFGLAKDKVRDLDSLWDVLMNDVLPLPLEIEFVHLGEKTRRRFGALILLFDEAEEELEGHLRFNVRH”: the protein production entry is given as “not failed”.

On to “APSQGATANAETQTTIPLGDTSQNALDWPGVYEGVLPCASCEGIQTTLTLQADNSFELKSIYLGKDESIFKVAGKFDWDSNGSKITLSDGSKYLVGENQLLMLDTEGNRITGGLAEHYILKKKGM”, for which the protein production entry is recorded as “not failed”.

As to “AQGLDGRMLVEAPEEVGAPADVAARLGIEPGALVVHRRRRATIGEDVVQLQDAWYPLEIARAAGLDRPGKVVGGVLGAMTGAGLSPTSTDHDVEVWVPSAQQAAELSLGSRVSVLVVERVTYDATVRVLELTRHTGAADRLTLTYKGLPLRATGAEGSTS”, the protein production result was “failed”.

With “AQQQELPVPKPHQLKWHEAEMGAVFHYDLHVFDGIRYGQGNNRINPIEDYNIFNPTELNTDQWVQAAKAAGCKFAVLTATHETGFGLWQSDVNPYCLKAVKWRDGKGDIVRDFVNSCRKYGLQPGIYIGIRWNSLLGIHNFKAEGEGAFARNRQAWYKRLCEKMVTELCTRYGDLYMIWFDGGADDPRADGPDVEPIVNKYQPNCLFYHNIDRADFRWGGSETGTVEYPCWSTFPVPCSHHKRIESSIDQLELLKHGDKNGRYWVPAMADTPLRGANGRHEWFWEPDDENNIYPLNTLMDKYEKSVGRNATLILGLTPDPTGLIPAGDAQRLKEMGDEINRRFSSPIARISGQKKSLTLKLGKEQSVNYCIIQENIKNGERIRQYQIEAKVNGKWQTVCKGESVGHKRIEKFEPVEATALRLTVSESIALPDIINFSAYSVK”, the protein production result is on record as “not failed”.

Turning to “AQRRNEIQVPDLDGYTTLKCDFHMHSVFSDGLVWPTVRVDEAYRDGLDAISLTEHIEYRPHKQDVVSDHNRSFDLCREQAEKLGILLIKGSEITRAMAPGHFNAIFLSDSNPLEQKDYKDAFREAKKQGAFMFWNHPGWDSQQPDTTKWWPEHTALYQEGCMHGIEVANGHLYMPEAIQWCLDKNLTMIGTSDIHQPIQTDYDFEKGEHRTMTFVFAKERSLQGIREALDNRRTAAYFHELLIGREDLLRPFFEKCVKIEEVSRNEQGVTLSITNVTDLVLKLKKTAHDTLLVYFRDMTLKPHTRYTVRIGFKQGIKGGDVNFEVTNFIVAPDKGLKYTISL”, the protein production entry is recorded as “not failed”.

Regarding “ARYYQHNAIEAVLEAISQGKNRMLLTLATGTGKTFIAFQLAWKLFQAKWNISGEPTHRPRILFLADRNILANQAFNAFGAFDDDALVRIDPKEIKKKGKVPKNGSLFFSIFQTFMTTKGDKDFAHFYDYAPDFFDFIIIDECHRGGANDESTWRKILEYFSPAVQLGLTATPKRDVNGDTYKYFGEPLYTYSLKEGINDGYLTPFKVVQFTTTLDEYLYDPDDDVIEGDIDEARTYEEKDFNRIIEMEEREKQRVQLFMEAINQNEKTLVFCATQDHALAVRDLINQMKISTDPNYCVRVTANDGSIGETNLKTFQDNEKAIPTILTTSRKLSTGVDARNVRNIVLLRPINSMIEFKQIIGRGTRLFDNKDYFTIYDFVRAYEHFNDDEWDGEPTEPVAIDPEPRKEREKIDLDLEDEPEENRKPQKIKVKLADGKERELAHTQTTTFWDADGKPISAQEFIEKLFGDLPDLFKDEAELRTIWGKPDTRKSFLTGLAE”, the protein production entry was “failed”.

In the case of “ASASIKKVAATLADAAITDGIGDATKAKAALDKISDAGGLIEDIGATRAQFGANINRLEHTMTNLGNMVENTSAAKGRIM”, the protein production entry is reported as “failed”.

For the sequence “ASPVENKEVYQCRLCNAKLSSLLEQGSHERLCRNAAVCPYCSLRFFSPELKQEHESKCEYKKLTCLECMRTFKSSFSIWRHQVEVHNQNNMAPT”, the protein production entry is recorded as “not failed”.

Take “ATKEFIYLVRGMTPEQGQAALDLKVPGVYGIEEFRRFYPAGDVTAHMVGFTDLDDHGREGVELAYDDWLAGVPGKRQVIKDRRGRLIKDVQVTKNAKAGKTLALSID”: the protein production entry is on record as “failed”.

“ATLKQLDGIHVTILHKEEGAGLGFSLAGGADLENKVITVHRVFPNGLASQEGTIQKGNEVLSINGKSLKGTTHHDALAILRQAREPRQAVIVTRKLTPEAMPDLNS”: the protein production entry was “not failed”.

“AWMHGHRFYVDERVIVPRSFIGELLDDGLQPYVEDPELVGSVLELCTGSGCLAILAALAFPNASVDAVDLSADALAVAKINRDDYGLDERIALHHGDLYAPLPQFKWIDSAQRYDVIITNPPYVNAESMAELPAEYRHEPEMALAGGADGMDIVRRIIGEARRWLKDDGVLVVEIGNERANVEAAFGGLELVWLPTSAGDDSVFLIHASD”: the protein production result is “failed”.

With “AYGLTFEAPKGILVEEDTEETFLLNNSRFYITIQSLDSDGMTKSDLKSVLKDYANDDGVKDQSAVQEFELPQFFGTYLKGSCETDHCLYACLMTKAAGSGFYISIIYSKENENIAEKILKSFTMEE”, the protein production result is “not failed”.

Take “CKLCLGEYPVEQMTTIAQCQCIFCTLCLKQYVELLIKEGLETAISCPDAACPKQGHLQENEIECMVAAEIMQRYKKLQFER”: the protein production result was “not failed”.

Take “CSEVNVVKERPKTDEHKSYSCSFKGCTDVELVAVICPYCEKNFCLRHRHQSDHDCEKLEVAKPRMAATQKLVR”: the protein production result is given as “not failed”.

On to “CVACSKPISGLTGAKFICFQDSQWHSECFNCGKCSVSLVGKGFLTQNKEIFCQKCGSGMDTDI”, for which the protein production entry is reported as “not failed”.

For the sequence “DAAPAPAAEAAPAAAPAPAAAAELKEVHVPDIGGDEVEVTEIMVAIGDSIEEEQSLITVEGDKASMEVPAPFAGTLKEIKVAAGDKVSTGSLIMVFETAGSGAPAAPAAVEAPAAAAPAASAA”, the protein production result is “failed”.

Regarding “DASRQAELVREGITSSSDLVEQSLNKIEKGNSQLNAVTYLRADRALEEAKQINDHGQPFFGVPILLKGLGQKLAGEPATASSRLLKKLVADQTDFYVQALQKAGFIVIGQTNAPEFGFKNITDPTLYGPTRNPWNLDYYSGGSSGGAASSMAADFVSIASGSDGGGSIRIPASFSSLIGLKPTRGRIPVGPTDWRTWQGASISFALTRSVRDNARLLDAIQTVQPAAAFTTPLYEAGFFAGIDQLDRNLTIAYTTKSPVGTEVRDEAKTAVENAVDFLRSEGFQVEEQENPLDGKEIMQLYYLMNAGETAAMFADIEEGIGRPTNIQDMELMSWVIYQAGKLVTAGEYSQALSKWDISSYQMNQFHENYDLYLTPTTAYPAPKLTDELISPELLGRMKEVTSLTSSFERQQLIYDAFLPSLALTPFTQQANLTGEPAISLPTHLTAAGLPLGIQFQAAKGREIDLLRIARLFEKHNLFHFLHKTIF”, the protein production entry is “failed”.

With “DCLLPIVAAPMAGGPTTVALAQAVSGVGGFPFLAGGYKSVEALATEIAVLRASGGNFGVNLFVPSPDMVDAEAFRIYAAKLQSEALPYGLRLDPLPVMGDDDGWPDKLALLLNDPVPVVSFTFGLPAVRDIAALRCAGSRVLASVTLPAEAQAAMEAGVDGLVVQGPDAGGHSATYDPGRPFTPLKTVSLVRRVCAVSSLPVIAAGGVDGPVMVRALLQAGAAAVAIGTLLLRTKESGATQVHKDALANPAYTETVITHAFTGRPARTLRNGFVNRYHASAPLGYPAIHHLTRPLRQAAASAGDADVLHLWAGTGYRQAMDGSAVDVIQ”, the protein production result is recorded as “failed”.

As for “DETYYTVDLEQKLEEKFGLEEAIVVATHDMSEEEALNFLAKEAAYTLSKRIAKVNTLGISWGKTIRKFANEFPYIPHKDLTIIPLIGGMGSSDIDLHSNQICYDLKKKMQCHSKYLYAPALVEDTEMKADLSKNKYINEVLEEGKTVDMAIVGVSSPYNQSTMEEIGYITPEDIEELRYKDVVGDINSRFFTANGEEANTQINTHVIGLSLEELKKIPTVVALANGLQKKDALVSALNAGLIDVIVITDRMAEYILQKND”, the protein production result is listed as “failed”.

On to “DEWTDEQFKQLISFKTQPGGWGVTDVHVRYANSAKYTYNLPVLVSGSTDNTDDRLVSFSLRDDTLDILNFEKFGNRPELYFRELPQKYYSFPKELTIPAGQSHALLPIEFSLDGLDDSQKWALPLKVCEDANGTYAVNPRKYYRTAVLRPILFNEFSGRFSGSSLLGTMAGESDIKFSSTEIKLNVVTDSIVFFYAGQRTEDYEDRINYKVFLQFTGDKVDSKKDLYKMKIWAENEKLKFNSYSTPTYKVSSEMDATKTYLKHTYIVISDIDFDFVDYTSVPNYEIEYNMKGGLSVSRDLDTRKPDEDQGSDSKWW”, for which the protein production entry is “not failed”.

Take “DHHAWHRLLDRALSEQHFQLYFQPVVAARDTHLVLHYKVLSRLLDEQGQTIPAGRFLPWLERFGWTSRLDLLMLEQVLRQMASHEDCLALNLSAATLADPHALNRVFEILRQHSDLGPRLTLEIGEEQLPEQAMLEQLTRRLRELGFSLSLQRFGGRFSMIGNLARLGLAYLKIDGSYIRDIDQESDKRLFIEAIQRAAHSIDLPLIAERVETEGELQVIREMGLYGVQGQLFGEPAPWG”: the protein production result is “not failed”.

“DHSLAIIEFDLSSRIIEVNQNYLDYFGYQRDEVIGQYHLMFCHPGYANSDEYQKIKTSLLAGQSLEGRFERIHKDGSRVWLAAIYQPVSGPDGSVTRIVKIAKNIT”: the protein production entry was “failed”.

Regarding “DIRPSKLLTWCQQQTEGYQHVNVTDLTTSWRSGLALCAIIHRFRPELINFDSLNEDDAVENNQLAFDVAEREFGIPPVTTGKEMASAQEPDKLSMVMYLSKFYELFRGTPLRPV”, the protein production result is recorded as “not failed”.
